16 sequences from the DeepSol protein solubility set can be followed below.

The nature of this data set: soluble on expression in E. coli; label from the status in PepcDB or PDB records.
Turning to “MIARRNPIEQLPAIAQDPDKFGVLLSAAEFRTHLVESIRQARKRIYLVALYLENDDAGREILTELYAAKQRNPGLEIHICVDWHRAQRGLIGAAESEGNAAMYRDFAQQHEHCIPVYGIPVRGREVFGVLHLKGFIIDDQVIYSGASLNNVYLQFHGRYRFDRYHTLENAELADSMVHFIQQEMLAHPAVNNLACGSKPTTKEIKSDIRQFRASLAQANYQFAKQKVNEGQVAVTPLVGLGRRRNRLNQSIIQLLASAKDEVFICTPYFNFPPSIAKEVKKALRRGVKVHIVIGDKTANDFYIAPEEPFKTIGGLPYLYELNLRRFAKANEAHIASRKLSIHLWKHENHSFHLKGIWVDKRYMLITGNNLNPRAWKLDLENAILIRDDYHHLTTKFEAEIDNILQHTQLICTYKQIEKPEHYPEKVQRLVRRIMRLKADRVLKQILLEHHHHHH”, the “soluble on expression in E. coli” value was “soluble”.
In the case of “MGSDKIHHHHHHMTPNPRHWARELWQRSRDRGLQTHIDVLVDATGLDDYPLLAEHARQSDPPALFKLLEQTPEAALADEGPLLLRLEDGHAAWLDELLERIDCRRHLMLLFSPWPLPRLGEHLRSCTQAEWNQGRSSGVLRFYEPGLFMAVSDMLDPRQSCYLHAPVSSWHWLDRDGRPRALAGHYQAHETPPLQAALRLEAHQVAALRAWSEAEAYRREYFVLPREHGLGSQESLLQHLVQAHLAADRQGLQDFDQRDAFVAQWLREQTPGPGFSPAGTSRA”, the “soluble on expression in E. coli” value is listed as “not soluble”.
For “MSLNMKTFKFFTALFATAILTACTLDMERPTNVQYIDKTDAIWQQHLQKIQKIQSYQAKGQIGYISPTERFSSRFEWQYQNPKSYTLKLYSLISKSTLWIQMHQSGMTISDNNGNQQSAANSKLLLQEIIGMDVPLEHLAYWLKGQPAMNADYQVGTNHLLGAFTYHVDGSQWTADYLTYHSNNSMPENILLKNDSTKQTLKIRVDEWIYEGGSHHHHHH” the value was “soluble”; for “MDVKWEGFSGVEMEEVKRNVFLTTLEQLKGWARSSSLWPLTFGLACCAIEMMAVGGAHYDLDRFGSFFRASPRQADVMIVSGTVTKKMAPLLRRLYDQMPEPKWVIAMGSCATAGGPYVKSYSVVKGVDQIVPVDVYIPGCPPNPAALIYGIHKLKEKIRLEAKTGKKVL”, “not soluble”; for “MLCVRRRCISAPMTDTTILPRPEVSGDFLVAALYHFARLPRFESLREQLFELCQKNGVKGTLLLAAEGINGTIAGPDAGVQAVLSFLRAQPEFAALEHKESRASHMPFVRLKVKLKKEIVTMGVPDIDPNRIVGTYVDPRDWNALISDPDTIVIDTRNDYETAIGVFKGAVDPQTKTFREFPDWVKNNPGLHNKPKIAMYCTGGIRCEKATAFMKEQGFDEVYHLKGGILKYLEEVPEEESLWEGACFVFDERVSVVHGLAEGDHQLCHACRNPITPDVRLSPKFEEGVSCPSCYDERSEDDRQRFRDRQQQIELAKTRGERHLGRLEHHHHHH”, “soluble”.
To “MCSAGGIRRPIQIEEFKTAISGMSDMELAQIKTEIENSINHLQRSNARLGKYIAKLEGADDRLEADDSDDLENIDSGDLALYKDSVRENEIVLNNYNERVDALEQETVYRKTGHGKSKHEVEAKDNTNKGPDVDMDNSNVDVVTPNSIFI” belongs “soluble”; to “MMVRVMRYKKVPVKKIVNKIIDECDVILLVLDARDPEMTRNRELEKKIKAKGKKLIYVLNKADLVPKDILEKWKEVFGENTVFVSAKRRLGTKILREMIKQSLKEMGKKEGKVGIVGYPNVGKSSIINALTGKRKALTGSVAGLTKGEQWVRLTKNIKLMDTPGVLEMRDEDDLVISGALRLEKVENPIPPALKILSRINNFDNSIIKEYFGVDYEEVDEELLKKIGNKRSYLTKGGEVDLVRTAKTIIKEYQDGKLNYYKVDLKKYGQDRERDISFITKYLKDFPFIEDAKMIVTHLKDFDGLYKKIKKPVLGSEEIDGNIVVVSFGEKTKDACRKKVENLCRERNIEVLSKFGDKIGANNIYVAVGKRVKE”, “soluble”.
In the case of “MEQLYPAPIKTVEEGSPAARAGVRPGDVLLRVNGQPVTDVLAYRHQLERGVVTLEVARPHEAPRVMTGVLEHHHHHH”, the “soluble on expression in E. coli” value was “not soluble”.
Regarding “MSLYDNDLWFATINLPYRQKLELLRIYKTSDEILYNFKNSELIQKYKFDIEKINYIKDEMKKSGMKIVFWNDDDYPKVLKNYDDMPYGLFYMGNIKKLNELNYNVAIVGSRRCTQYGKDITTIISREISINGIGIISGMARGIDTYAHKICLENNGYTCAVLGCGADVIYPKENKNLYCQIIRNGCIISQYKPNTKPLPYNFPIRNKIISGLSNLVLVTEADIKSGSIITASSALEQGKDVGAVPGSVFSKMSRGTNKLIQDGAHVIKDIDDVFGILNFQKINFKKIRNNSSYSSMPENQRQIYDLVSDKPIHVDDIKRCLNIDIQELYELLFEMQLKNKILCLSGSYYVRVNDCLEGHHHHHH”, the “soluble on expression in E. coli” value was “soluble”.
Consider “MSLKTERILLPVDGSESSYRAAYCAAQAAQLCGAEVLLLHCVDQTEQNGEAPLVDTTLAEDTTTNRHPKQADALGMATANDLIGPVRDILEDHGIRYMERIVEGEPATCIPRVAQNTRCGLIVMGRSGKTPSGRLPVGSVTGRVVGAAHCPVIVAEGHHHHHH”, for which the “soluble on expression in E. coli” value is listed as “soluble”.
For “MSLTNLLQKIGDAVTVVNFSLYEGFIFDMDGTLLDTMPAHLAAWEATAKHFDFPFDAQWLYGLGGMPSAKITTHINKKLGLALDPDRVAAYKMDWFASMGLQAEVIPATYELLCQWQGKKKMAIGTGSQRDSALRLLSNAQVLDKFDAVVTASDVQQHKPHPETFLMACEQLGLTPKQCLVFEDTQLGLQAAHAGGMDCMLVTEQGLVFYPFAHEGHHHHHH” the value was “soluble”; for “MINYPNLPNSALEITEQPEVKEITNELLKQLQNALNSNSLFSEQVELSLKGIVRILEVLLSLDFFKNANEIDSSLRNSIEWLNNAGESLKTKMKEYEGFFSDFNTSMRTNEQEVSATLNANTENIKSEIKKLENQLIETTTRLLTSYQIFLNNARDSANNQITANKTESLEALNQAKTSANNEITANQTQALTNINEAKENANNQITENKTQAITNINEAKNQSLSKH”, “not soluble”.
For “MQYFSPEQQYNAWIVSDLVKQIFHKRAGCSPGIHELAVFAEEHFHIDIDFVFSIIMNIGDIEFALTDEIEKKLSGYLSTLLPYVTADMFETSKANAHAFLSRRHGNAAYHLFVSDDAFMRKQLEHHHHHH”, the “soluble on expression in E. coli” value was “soluble”.
On to “TEQKQKHMEQLSDKNGIISALAFDQRGALKRLMAKYQSEEPTVSQIEALKVLVAEELTPYASSMLLDPEYGLPATKVLDDNAGLLLAYEKTGYDTSSTKRLPDCLDIWSAKRIKEEGADAVKFLLYYDVDSSDEVNEEKEAYIERIGSECVAEDIPFFLEILSYDEKITDSSGIEYAKIKPRKVIEAMKVFSNPRFNIDVLKVEVPVNMDYVEGFAQGETAYNKATAAAYFREQDQATLLPYIFLSAGVPAQLFQETLVFAKEAGAKFNGVLCGRATWAGSVKEYVEKGEAGARQWLRTIGFQNIDELNKILQKTATSWKE”, for which the “soluble on expression in E. coli” value was “soluble”.
In the case of “GPGSMAHLFFTGACAAAAALPISDREEVSPVWSIYDDYCCGASQHAEVDDPQVEGEGVGNCGGTTPPRLPFISGPVSSMTLKGAQLKKEAPIRRGAQGAVYSALDVATSAPAEDEKAKGLFSPEACRGHEGEAQVADGGQRPARRGRRVAVKRIFIQASDFGARDISATVLREVTLHRFVSEKQAACLAAAGAFYPTGSTSDATALAEADQGQTLCNLIDDSARVIHLYRVVEAPHKEMCLVMELAATNLEQVVFPHGARGASRGDGAGGYKRKPGVVSLFGSSASIGVGGGLGLSSASPSTAPDAATAEVGPQASSPSPPPSRMPLVRYVMRRLLRLVCFLHETCCVVHRDLKLSNVLVSKDAGLRLGDFGSARFIPPLRSATKTGVENSPSVPEPPAAPAGQREHLLCTPPSIRTTLHYRPPEALLGDQVCRTAADVWALGVIFAQLLLQKGLFHSESELDLLGAIQKLLGMPTYSAPPSWLAAPSVPGPPRERESAAHVPAPQASLPYKFHTGVVPADGLDLLSRMLHQQPECRVTAREALQHPFLNLEGLSAAATHDDDERGRVLWEERVATVLREQATGHIYGMGGGERRPMLISLADNEDEEDQEDDEVGVAPFCVNLGGCTSY”, the “soluble on expression in E. coli” value is on record as “not soluble”.
To “MRFGEGSAKPIVSAATYGVGGNAFAQAIADPVSTVHSNKPELLVVDGYNVIHCTPRYEKLVYDHSDDPYSSDVHDMARTALINDVAAFAQGRYEAVIVFDGAGNISSERPNLPARGVRIEFSPTGVSADTVVQKLCIEAREEGRACSVVSSDGTIQAVVMGKGVTRISSRMLVDEIKQIDNDVHEAEEAPQIKMTLEHHHHHH” belongs “soluble”.
